Data taken from paper PMC9215227 (Journal of Virology, 2022).

Target: NP of SARS-CoV-2 (catalog no. 40588-V07E; Sino Biological) (SARS-CoV-2, UniProt P0DTC9 1-419)
Experiment: SPR; […], Biacore T200; 0.01 M HEPES pH 7.4, 0.15 M NaCl, 3 mM EDTA, 0.05% Tween 20; […]; 1:1 binding model
Settings: both partners purified

B1: 6×His-Flag-G3BP2 (natural protein)
chain: MVMEKPSPLLVGREFVRQYYTLLNKAPEYLHRFYGRNSSYVHGGVDASGKPQEAVYGQNDIHHKVLSLNFSECHTKIRHVDAHATLSDGVVVQVMGLLSNSGQPERKFMQTFVLAPEGSVPNKFYVHNDMFRYEDEVFGDSEPELDEESEDEVEEEQEERQPSPEPVQENANSGYYEAHPVTNGIEEPLEESSHEPEPEPESETKTEELKPQVEEKNLEELEEKSTTPPPAEPVSLPQEPPKAFSWASVTSKNLPPSGTVSSSGIPPHVKAPVSQPRVEAKPEVQSQPPRVREQRPRERPGFPPRGPRPGRGDMEQNDSDNRRIIRYPDSHQLFVGNLPHDIDENELKEFFMSFGNVVELRINTKGVGGKLPNFGFVVFDDSEPVQRILIAKPIMFRGEVRLNVEEKKTRAARERETRGGGDDRRDIRRNDRGPGGPRGIVGGGMMRDRDGRGPPPRGGMAQKLGSGRGTGQMEGRFTGQRR
Kd: 103 nM
